Experimental data as given in the Human Domainome abundance scans (Beltran et al. 2025).
± gives the uncertainty stated by the source.

B1: WW domain-binding protein 4, residues 8 to 43; numbered along this chain, O75554 (parent)
chain: QPKKFCDYCKCWIADNRPSVEFHERGKNHKENVAKR
B2: Gamma-crystallin C, residues 4 to 79; numbered along this chain, P07315 (parent)
chain: ITFYEDRAFQGRSYETTTDCPNLQPYFSRCNSIRVESGCWMLYERPNYQGQQYLLRRGEYPDYQQWMGLSDSIRSC

Variants of: B1
Assay: abundance fitness (aPCA) (normalised: wild type 0, dead -1); higher = more abundant; growth selection in yeast, the domain comes from the species named
Conditions: Homo sapiens

Going from GPKKFCDYCKCWIADNRPSVEFHERGKNHKENVAKR [Q1G] to QPKKFCDYCKCWIADNRPSVEFHERGKNHKEVVAKR [N32V], the abundance fitness rises from -0.548 ± 0.099 to -0.294 ± 0.075.

First: QPKKFRDYCKCWIADNRPSVEFHERGKNHKENVAKR [C6R]
Second: QPKKFCDYCKCWIWDNRPSVEFHERGKNHKENVAKR [A14W]
The abundance fitness of the first is lower: -0.691 ± 0.071 for the first, -0.338 ± 0.076 for the second.

Compared with QPKKFCDYCKCWIADNRPSVEFHERGKNHKENKAKR [V33K], QPKKFCDYCKCWIADNRPSVEFHERGKWHKENVAKR [N28W] is higher in abundance fitness: -0.278 ± 0.076 for the first, 0.147 ± 0.1 for the second.

QPKKFCDYCKCWIADNRPSVWFHERGKNHKENVAKR [E21W] and QPKKFCDYCKCWIADNRPSVEFHERGFNHKENVAKR [K27F] are within error of each other in abundance fitness: -0.295 ± 0.07 for the first, -0.189 ± 0.13 for the second.

Going from QPKKFCDYCKCWIADNRPSVEFHERGKNHKDNVAKR [E31D] to QPKKFCDYCKCWIADNRPSVEFHERGKNHKWNVAKR [E31W], the abundance fitness falls from -0.093 ± 0.32 to -0.955 ± 0.1.

Compared with QPKKFCDYCKCWIADNRPSVEFHERGKNRKENVAKR [H29R], QPKKFCDYCKCWIADNRVSVEFHERGKNHKENVAKR [P18V] is higher in abundance fitness: -0.626 ± 0.084 for the first, -0.198 ± 0.069 for the second.

QPKKFCDYCKCWIADNRFSVEFHERGKNHKENVAKR [P18F] and QPKKFCDYCKCWIAHNRPSVEFHERGKNHKENVAKR [D15H] are within error of each other in abundance fitness: -0.431 ± 0.46 for the first, -0.37 ± 0.24 for the second.

QPKKFCDYCKCWIATNRPSVEFHERGKNHKENVAKR [D15T] and QPKKFCDYCKCAIADNRPSVEFHERGKNHKENVAKR [W12A] are within error of each other in abundance fitness: -0.075 ± 0.096 for the first, -0.209 ± 0.078 for the second.

QPKKFCDYCKCHIADNRPSVEFHERGKNHKENVAKR [W12H] and QPKKFCDYCKCWIADNRPSVEVHERGKNHKENVAKR [F22V] are within error of each other in abundance fitness: 0.339 ± 0.3 for the first, 0.085 ± 0.056 for the second.

Going from QPKKFCDYCKCWIADNPPSVEFHERGKNHKENVAKR [R17P] to QPKKFCDYCKCWNADNRPSVEFHERGKNHKENVAKR [I13N], the abundance fitness falls from 0.253 ± 0.078 to -0.308 ± 0.16.

Variants of: B2
Assay: as above
Conditions: Homo sapiens

Going from ITFYEDRAFQGRSYETTTDCPNLQPYFSRCNSIRVESGCWMLYERPNYQGQQYLLRRSEYPDYQQWMGLSDSIRSC [G58S] to IEFYEDRAFQGRSYETTTDCPNLQPYFSRCNSIRVESGCWMLYERPNYQGQQYLLRRGEYPDYQQWMGLSDSIRSC [T2E], the abundance fitness falls from -0.039 ± 0.081 to -0.473 ± 0.15.

Compared with ITFYEDRAFQGRSYETTTDCPNLQPYFSRCNSIRVESGCWMLYERPNYQGQQYLLRRGEYPDYQQWMGSSDSIRSC [L69S], ITFYEDRAFQGRSYETTTDCPNLQPYFSRCNSIRVESGCWMLYERPNYQGQQYLLRRGEYPDYQQWMGLSDSIRSS [C76S] is higher in abundance fitness: -0.153 ± 0.076 for the first, 0.051 ± 0.063 for the second.

ITFYEDRAFQGRSYETTTDCPNLQPYFSRCNSIRVESGCWMLYERPNYQGQQYLLRRGEYPDYQQWMGLSISIRSC [D71I] and ITFYEDRAFQGRSYETTTDCPNLQPYFSRCNSIRVESGCWMLYERPNYQGQQYLLRRGEYPDYQQWMGLSRSIRSC [D71R] are within error of each other in abundance fitness: -0.106 ± 0.1 for the first, -0.011 ± 0.066 for the second.

First: ITFYEFRAFQGRSYETTTDCPNLQPYFSRCNSIRVESGCWMLYERPNYQGQQYLLRRGEYPDYQQWMGLSDSIRSC [D6F]
Second: ITFYEDRAFQGRSYETTTDCPNLQPYFSRCNSIRVESGCWMQYERPNYQGQQYLLRRGEYPDYQQWMGLSDSIRSC [L42Q]
The abundance fitness of the first is higher: -0.204 ± 0.14 for the first, -0.888 ± 0.19 for the second.

ITFYEDRAFQGRSYETTTDCPNLQPTFSRCNSIRVESGCWMLYERPNYQGQQYLLRRGEYPDYQQWMGLSDSIRSC [Y26T] and ITFYEDRAFQGRSYETTTDCPNLQPYFSRCNSIRVESGCWFLYERPNYQGQQYLLRRGEYPDYQQWMGLSDSIRSC [M41F] are within error of each other in abundance fitness: -0.186 ± 0.097 for the first, 0.104 ± 0.2 for the second.

ITFYEDRAFQGRSYETTTDCPNLQPYFSRCNSIRVESGCWYLYERPNYQGQQYLLRRGEYPDYQQWMGLSDSIRSC [M41Y] and ITFYEDRAFQGRSYETTTDCPNLQPYFSRCNSIRVESGCWMLYERPNYQGQQYLLRRGEYPDYQQEMGLSDSIRSC [W66E] are within error of each other in abundance fitness: 0.032 ± 0.1 for the first, 0.068 ± 0.098 for the second.

ITFYEDRAAQGRSYETTTDCPNLQPYFSRCNSIRVESGCWMLYERPNYQGQQYLLRRGEYPDYQQWMGLSDSIRSC [F9A] and ITFYEDRAFQGRSYETTTDCPNLQPYFSRCNSIRVESGCWMLMERPNYQGQQYLLRRGEYPDYQQWMGLSDSIRSC [Y43M] are within error of each other in abundance fitness: -0.139 ± 0.15 for the first, -0.296 ± 0.18 for the second.

Compared with ITFYEDRAFQGRSYETTTDCPNLQPYFSRCNSIRVESGCWMLVERPNYQGQQYLLRRGEYPDYQQWMGLSDSIRSC [Y43V], ITFYEDRAFQGRSYETTTDCPNLVPYFSRCNSIRVESGCWMLYERPNYQGQQYLLRRGEYPDYQQWMGLSDSIRSC [Q24V] is higher in abundance fitness: -1.05 ± 0.19 for the first, 0.006 ± 0.071 for the second.

ITFYEDRAFQGRSYETTTDCPNLQPYFSRCNSIRVESGCWMLYETPNYQGQQYLLRRGEYPDYQQWMGLSDSIRSC [R45T] and ITFYEDRAFQGRSYETTTDCPNLQPYFSRCNSIRVESGCWMLYEDPNYQGQQYLLRRGEYPDYQQWMGLSDSIRSC [R45D] are within error of each other in abundance fitness: -0.001 ± 0.12 for the first, -0.11 ± 0.14 for the second.

ITFYEDRAFQGRSYETTTDCPNLQPYFSRCNSIRVESGCWMLYEWPNYQGQQYLLRRGEYPDYQQWMGLSDSIRSC [R45W] and ITFYEDRAFQGRMYETTTDCPNLQPYFSRCNSIRVESGCWMLYERPNYQGQQYLLRRGEYPDYQQWMGLSDSIRSC [S13M] are within error of each other in abundance fitness: -0.04 ± 0.1 for the first, -0.075 ± 0.077 for the second.
